Laboratory results: the supplement of paper PMC7125110
± gives the standard error. Fewer inactive variants are shown than the library holds.

B1: glmS ribozyme (parent)
chain: AUAAAAGCGCCAGAACUACAGAAAUGUAGUUGACGAGGAGGAGGUUUAUCGAAUUUUCGGCGGAUGCCUCCAAA

How the values were obtained:
Conditions in all cases: with glucosamine-6-phosphate
[1] = variants of: B1; test: self-cleavage kobs at 40 uM GlcN6P; higher = faster cleavage; RNA array
Method in brief: (§1)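 Sequenced MiSeq chips were the platform: E. coli RNA polymerase transcribed barcoded ribozyme variants on them in situ, and a hybridised Cy3 probe tracked these at 37 °C. After glucosamine-6-phosphate (40 μM to 10 mM) in HEPES/KCl/Mg(OAc)2 buffer was flowed in, tiles were imaged over ~14 h. Signals normalised to baseline and to non-cleaving reference variants were reduced to per-tile medians and fit to one- or two-exponential decays to obtain kobs. kcat and KM were derived through weighted Michaelis–Menten fits across concentrations.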

[2] = variants of: B1; test: self-cleavage kobs at 10000 uM GlcN6P; higher = faster cleavage; RNA array
Method in brief: as §1

[3] = variants of: B1; test: self-cleavage kobs at 640 uM GlcN6P; higher = faster cleavage; RNA array
Method in brief: as §1

[4] = variants of: B1; test: self-cleavage kobs at 2500 uM GlcN6P; higher = faster cleavage; RNA array
Method in brief: as §1

[5] = variants of: B1; test: self-cleavage kobs at 160 uM GlcN6P; higher = faster cleavage; RNA array
Method in brief: as §1

Variant	self-cleavage kobs at 40 uM GlcN6P [1] [s⁻¹]	self-cleavage kobs at 10000 uM GlcN6P [2] [s⁻¹]	self-cleavage kobs at 640 uM GlcN6P [3] [s⁻¹]	self-cleavage kobs at 2500 uM GlcN6P [4] [s⁻¹]	self-cleavage kobs at 160 uM GlcN6P [5] [s⁻¹]
A33G C68U	< 1e-05	< 1e-05	–	–	–
C58G A64G C70G	< 1e-05	–	–	–	–
G37A U56G	5.06e-05 ± 1.6e-05	0.00174 ± 0.00028	–	–	–
G29C U54A	6.64e-05 ± 1.5e-05	0.00381 ± 0.00046	0.000499 ± 8.4e-05	0.000928 ± 0.00025	–
G60A C61A C67G C68G	4.45e-05 ± 2.2e-05	–	–	–	–
A52C G62C C70A	< 1e-05	–	–	–	–
C11G U30G A36C A64U U65C	< 1e-05	< 1e-05	< 1e-05	< 1e-05	< 1e-05
C61A G62C G63U C71A	< 1e-05	< 1e-05	–	–	–
A15U G51C A64G	< 1e-05	–	–	–	–
C8U A15C	< 1e-05	–	< 1e-05	–	< 1e-05
G37U U54G A64U	< 1e-05	< 1e-05	–	–	–
U54C U55C U65A	3.24e-05 ± 1.6e-05	–	–	–	–
A6G U46A	< 1e-05	–	–	–	< 1e-05
G59U G60C	< 1e-05	< 1e-05	< 1e-05	–	–
G59U G60U	< 1e-05	–	< 1e-05	< 1e-05	< 1e-05
C11G A42G	< 1e-05	–	< 1e-05	–	< 1e-05
C34G A52C	< 1e-05	< 1e-05	< 1e-05	< 1e-05	< 1e-05
A12U G59C	< 1e-05	< 1e-05	< 1e-05	< 1e-05	< 1e-05
C16U U49G G59C G62U C67A	< 1e-05	–	–	–	–
G9U U30G	< 1e-05	< 1e-05	< 1e-05	–	–
G7A C50G C71U	0.000141 ± 3.5e-05	9.72e-05 ± 2.2e-05	0.000136 ± 3.9e-05	0.000177 ± 3.7e-05	0.000482 ± 9.3e-05
G9A A12U C61A	< 1e-05	–	–	–	–
G9A G43C	< 1e-05	–	–	–	–
C34U A42G	< 1e-05	< 1e-05	–	–	< 1e-05
U46C C50A C58U G62C	< 1e-05	–	–	–	–

Variant	self-cleavage kobs at 40 uM GlcN6P [1] [s⁻¹]	self-cleavage kobs at 10000 uM GlcN6P [2] [s⁻¹]	self-cleavage kobs at 640 uM GlcN6P [3] [s⁻¹]	self-cleavage kobs at 2500 uM GlcN6P [4] [s⁻¹]	self-cleavage kobs at 160 uM GlcN6P [5] [s⁻¹]
A6G C11U G32C	< 1e-05	–	–	–	–
C34G U57G	< 1e-05	< 1e-05	< 1e-05	–	< 1e-05
U55A G63U	< 1e-05	< 1e-05	< 1e-05	–	–
G51U C58A G60U	< 1e-05	< 1e-05	–	–	–
G43A U47G U54A	< 1e-05	–	–	–	–
A12U C16A G51C	< 1e-05	–	–	–	–
A48C U65G	< 1e-05	–	–	–	< 1e-05
A12C A20U C67G	9.99e-05 ± 2.5e-05	0.00115 ± 0.00024	–	–	–
U54G C71U	0.00109 ± 0.00015	0.0636 ± 0.013	0.00857 ± 0.00098	0.0283 ± 0.0078	0.00194 ± 0.00038
A15G G35A	< 1e-05	< 1e-05	–	–	< 1e-05
A33U G38U A42U U56C G63U	< 1e-05	< 1e-05	–	–	–
G59A A64U C67G	< 1e-05	–	–	–	–
C8G G13A	< 1e-05	< 1e-05	< 1e-05	< 1e-05	–
C11G A48U	< 1e-05	< 1e-05	< 1e-05	–	< 1e-05
C16G U31A	5.78e-05 ± 2.1e-05	0.00174 ± 0.0006	0.000204 ± 8.2e-05	0.00117 ± 0.00048	4.17e-05 ± 1.9e-05
A52U C58G	< 1e-05	< 1e-05	< 1e-05	–	–
G37U C68A	< 1e-05	< 1e-05	–	–	–
U46A A48C C70G C71U	< 1e-05	< 1e-05	–	–	–
A14U G37A G43U C68G C70G	< 1e-05	–	–	–	–
U31A C34U C71U	< 1e-05	–	–	–	–
G32A G51A	< 1e-05	< 1e-05	< 1e-05	–	< 1e-05
A42G U69C C71A	0.000273 ± 0.00013	–	–	0.00647 ± 0.0028	–
G35U	< 1e-05	< 1e-05	< 1e-05	< 1e-05	< 1e-05
A36U U47G A53G C68G	7.44e-05 ± 2.6e-05	0.000107 ± 3.7e-05	–	–	–
A15C U49A	< 1e-05	< 1e-05	< 1e-05	–	–

Variant	self-cleavage kobs at 40 uM GlcN6P [1] [s⁻¹]	self-cleavage kobs at 10000 uM GlcN6P [2] [s⁻¹]	self-cleavage kobs at 640 uM GlcN6P [3] [s⁻¹]	self-cleavage kobs at 2500 uM GlcN6P [4] [s⁻¹]	self-cleavage kobs at 160 uM GlcN6P [5] [s⁻¹]
A33G A36G G51U	< 1e-05	< 1e-05	–	–	–
U31A G63A	< 1e-05	< 1e-05	–	–	–
G29U G41U G51A	< 1e-05	–	–	< 1e-05	–
U46A U57A	< 1e-05	–	–	–	< 1e-05
G7U G44U	< 1e-05	< 1e-05	< 1e-05	–	< 1e-05
A12C G38C U56C	< 1e-05	< 1e-05	–	–	–
G38C U56G	< 1e-05	–	< 1e-05	< 1e-05	< 1e-05
A39G A42U U57A	< 1e-05	–	–	–	< 1e-05
G37C U45C G59U C68G	< 1e-05	< 1e-05	< 1e-05	–	–
G35A U65C	< 1e-05	< 1e-05	< 1e-05	< 1e-05	< 1e-05
C16U U31A A36G	< 1e-05	–	–	–	–
A15U G29U U54G	7.25e-05 ± 1.8e-05	0.00243 ± 0.00048	–	–	–
U47A C71U	0.000701 ± 8.3e-05	0.0342 ± 0.0081	0.00323 ± 0.00057	0.00535 ± 0.001	0.0018 ± 0.0003
A36G G51A	< 1e-05	–	< 1e-05	–	< 1e-05
G44A G59C C71U	< 1e-05	< 1e-05	–	–	–
U55G G60U	< 1e-05	–	< 1e-05	< 1e-05	< 1e-05
G35U G44C U56C	< 1e-05	–	–	–	–
U54G C67G	0.000338 ± 4.2e-05	0.00398 ± 0.0006	0.00079 ± 0.00024	0.000568 ± 0.00012	0.000142 ± 4.5e-05
U54A C71U	0.00124 ± 0.00023	0.0214 ± 0.01	0.00337 ± 0.00063	0.00313 ± 0.00083	0.00159 ± 0.00033
G37C U46G A48U	< 1e-05	< 1e-05	–	–	–
C10A C34A G38U	< 1e-05	–	–	–	–
C8G G29U C71G	< 1e-05	–	–	–	–
G7U G13A A15U U31G U49G C67A	< 1e-05	–	–	–	–
C10U G32A G43A C71A	< 1e-05	–	–	–	–
G9C G63A	< 1e-05	–	< 1e-05	–	–

Variant	self-cleavage kobs at 40 uM GlcN6P [1] [s⁻¹]	self-cleavage kobs at 10000 uM GlcN6P [2] [s⁻¹]	self-cleavage kobs at 640 uM GlcN6P [3] [s⁻¹]	self-cleavage kobs at 2500 uM GlcN6P [4] [s⁻¹]	self-cleavage kobs at 160 uM GlcN6P [5] [s⁻¹]
C10U G40C	< 1e-05	< 1e-05	–	< 1e-05	< 1e-05
A12U G13A U47C A53G	< 1e-05	–	–	–	–
A39C U54C A64C	< 1e-05	–	–	–	–
C8U C68U C70U	< 1e-05	< 1e-05	–	–	–
G9C G37A G60C U65A	< 1e-05	–	–	< 1e-05	–
C11U U31A G38U U49A U54G	< 1e-05	–	–	–	–
U46G C61U	< 1e-05	–	< 1e-05	–	< 1e-05
A14U G29C G38U C50G	0.000223 ± 7.2e-05	7.38e-05 ± 1.8e-05	–	–	–
A15C G38A C67G	< 1e-05	–	–	–	–
A39U U54A	0.000568 ± 6.6e-05	–	0.00339 ± 0.00076	–	–
A6C A15G U45G	< 1e-05	–	–	–	< 1e-05
A42U G44U	< 1e-05	–	< 1e-05	< 1e-05	< 1e-05
A42U G44A	< 1e-05	–	< 1e-05	< 1e-05	< 1e-05
A12U A15C U55A	0.000587 ± 0.00012	0.012 ± 0.0027	–	–	–
C16G G29U	0.000398 ± 5.9e-05	0.0203 ± 0.0044	0.00183 ± 0.00046	0.00758 ± 0.0015	0.00129 ± 0.00034
A15G C71U	0.00111 ± 0.0001	0.0519 ± 0.014	0.00696 ± 0.0013	0.0534 ± 0.021	0.00193 ± 0.00039
G7U G32A	< 1e-05	< 1e-05	< 1e-05	< 1e-05	< 1e-05
C8A G40A G63A	< 1e-05	< 1e-05	–	–	–
U45G C50A U65G	< 1e-05	–	< 1e-05	–	–
A6G A12C G35A G41U C71A	< 1e-05	–	–	–	–
U47G G63U	< 1e-05	< 1e-05	< 1e-05	< 1e-05	< 1e-05
C10G G44A	< 1e-05	< 1e-05	< 1e-05	–	< 1e-05
C10G U49G G60C	< 1e-05	–	< 1e-05	–	–
